Data on two substances can be found in article PMC5982450.

The target in assay [1] is formylated peptide receptors (FPR) (human (endogenous in neutrophils)) (UniProt P21462).
Assay [2] has the same target. This is another data set of the same source.
Assay [3] addresses C5a receptor (C5aR) (human (endogenous in neutrophils)) (UniProt P21730).
Chain of UniProt P21730 (P21730 whole entry): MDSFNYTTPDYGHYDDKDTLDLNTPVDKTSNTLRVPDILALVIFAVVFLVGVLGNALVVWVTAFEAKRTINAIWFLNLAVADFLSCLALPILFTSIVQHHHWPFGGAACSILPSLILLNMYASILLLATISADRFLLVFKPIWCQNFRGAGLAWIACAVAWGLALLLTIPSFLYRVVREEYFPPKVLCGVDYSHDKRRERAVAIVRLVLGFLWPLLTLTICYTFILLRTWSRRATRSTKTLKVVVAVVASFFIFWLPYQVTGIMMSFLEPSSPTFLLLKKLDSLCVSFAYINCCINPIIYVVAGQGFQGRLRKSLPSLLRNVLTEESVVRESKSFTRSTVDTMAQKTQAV

Chain of UniProt P21462 (P21462 whole entry): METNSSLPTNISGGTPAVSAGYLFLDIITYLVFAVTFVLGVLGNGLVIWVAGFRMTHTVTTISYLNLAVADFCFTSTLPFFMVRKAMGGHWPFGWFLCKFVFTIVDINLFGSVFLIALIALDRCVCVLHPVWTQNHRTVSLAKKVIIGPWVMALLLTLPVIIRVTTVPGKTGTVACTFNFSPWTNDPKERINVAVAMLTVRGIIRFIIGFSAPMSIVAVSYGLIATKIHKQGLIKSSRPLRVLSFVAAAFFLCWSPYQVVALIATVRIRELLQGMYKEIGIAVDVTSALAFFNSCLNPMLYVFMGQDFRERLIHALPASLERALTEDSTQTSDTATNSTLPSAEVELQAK

In the case of “chemotaxis inhibitory protein of Staphylococcus aureus (CHIPS) (from UniProt A6QIG7 29-149) (natural protein)”, in assay [1], the neutrophil chemotaxis towards fMLF (10^-7 M) in a 3D fibrin gel, mean vector speed without vs with CHIPS (10 μg/ml); value is the speed with CHIPS was found to be 0.4 μm/min. For the same substance, the neutrophil chemotaxis towards human fracture hematoma serum in a 3D fibrin gel, mean vector speed without vs with CHIPS (10 μg/ml); value is the speed with CHIPS in assay [2] and in assay [3] was 3.3 μm/min throughout.

As to “CHIPSΔ1F, a CHIPS mutant lacking the first N-terminal amino acid (domain or fragment)”, in assay [3], the neutrophil chemotaxis towards human fracture hematoma serum in a 3D fibrin gel, mean vector speed without vs with CHIPSΔ1F (10 μg/ml); value is the speed with CHIPSΔ1F came to 4 μm/min.
